Data on 1 protein can be found in publication PMC12494543, “Identification of ALKBH6 as a nucleotide demethylase with a distinct substrate preference” (The Journal of Biological Chemistry, 2025).

Substrate in series [1]: C[n+]1cnc2c(ncn2[C@@H]2O[C@H](COP(=O)(O)O)[C@@H](O)[C@H]2O)c1N
As to the kind of experiment: FDH-coupled formaldehyde release demethylation assay. To be noted: other: substrate of ALKBH6, Michaelis-Menten; 37.0 °C. It counts as biochemical, human. How it is done: (§1) NMPs including 1meAMP (Jena Bioscience, NU-1029-1,) 7meGMP (Jena Bioscience, NU-1135S), 6me-AMP (Sigma, M2780) were purchased. N-methylated deoxy-NMPs were prepared by methylating chemically synthesized 30-mer oligonucleotide containing either dA, dG, dC, or dT by MMS (5%, v/v) (0.59 M) MMS (Sigma, 129925) and purified as described before ([17]). The oligonucleotides were digested with nuclease P1 (NEB) at 37 °C for 4 h to produce deoxy-NMPs. After heat inactivating the nuclease, dNMPs were purified by HPLC and used for the demethylation reaction. N-methylated NMPs were purified similarly, using RNA as the starting material. For the demethylation reaction, ALKBH6 (1 μM) and me-dNMPs (1 mM) were mixed in the dioxygenase reaction buffer and incubated at 37 °C for 30 min. Formaldehyde release was detected by FDH-coupled DNA repair assay as described before ([32], [33]). Briefly, 1 mM NAD+ and 0.01 U FDH were added to the dioxygenase reaction buffer containing methylated nucleotide and ALKBH6. NADH generated was detected by the characteristic absorption peak (340 nm) using a 96-well multimode reader (Synergy, Biotek Instrument). Formaldehyde production was quantified from the standard curve and the initial velocities were determined using various substrate concentrations. The results were plotted and analyzed using GraphPad Prism.

Substrate in series [2]: C[n+]1cn([C@@H]2O[C@H](COP(=O)(O)O)[C@@H](O)[C@H]2O)c2nc(N)[nH]c(=O)c21
The series is described as above. It counts as biochemical, human. To be noted: other: substrate of ALKBH6, Michaelis-Menten; 37.0 °C. The method, then:
as §1

B1: ALKBH6 (Homo sapiens) (protein)
chain: MEEQDARVPALEPFRVEQAPPVIYYVPDFISKEEEEYLLRQVFNAPKPKWTQLSGRKLQNWGGLPHPRGMVPERLPPWLQRYVDKVSNLSLFGGLPANHVLVNQYLPGEGIMPHEDGPLYYPTVSTISLGSHTVLDFYEPRRPEDDDPTEQPRPPPRPTTSLLLEPRSLLVLRGPAYTRLLHGIAAARVDALDAASSPPNAAACPSARPGACLVRGTRVSLTIRRVPRVLRAGLLLGK
notes: His-tag; made in house
For orientation: Km means the substrate concentration at which the rate is half of its maximum. The term kcat denotes the maximal rate divided by the concentration of active sites. For the protein B1, in series [1], the Michaelis constant (Km) amounted to 0.96 µM and the catalytic constant (kcat) came to 0.18 s⁻¹. In series [2], the Km turned out to be 1.03 µM and the kcat came out at 0.167 s⁻¹.
